B1: DNJ-13 (natural protein)
chain: not shown
notes: DNJ-13, cytosolic Hsp40-like J domain protein of C. elegans; cDNA in pET28b after the N-terminal His6 tag; called full-length in the results; also called full-length DNJ-13; DNJ-13 dimer; source: E. coli BL21-CodonPlus(DE3)RIL, purified (HisTrap FF, ResourceS ion exchange, Superdex 75 SEC)
B2: Labeled CDC-37 (*CDC-37) (natural protein, nematode, UniProt O02108 1-370, looked up)
chain: MPIDYSKWKDIEVSDDEDDTHPNIDTPSLFRWRHQARLERMAEKKMEQEKIDKEKGTTSKKMEELEKKLAAADVTDKSDIQKQIDEVKAQEEAWRKKEAELEEKERLEPWNVDTIGHEAFSTSRINKITEKKPQAPKTDEEDTHAMSTFFETHESLLEKMAVLKNGAKSTELFLAEHPHMASEYTANWLTIEALNAAIDFNEEKMKTMAEQCIIIQYLLELSKSLNAVATNTTVQKQFFKKFEAAEPVYMKHYQDEVKAFEDRLRTRAQTKRDAAMEEAEAEEKAERMKSAPGGIDPQEVFEQLPEEMRKCFEAHDIEALKGVAQKMDEEVFKYHFDRCIASGLWVPGKADDDDDDEEAAPAEEEPTTSS
modifications: ATTO 488 C5-maleimide at its cysteine residues
notes: CDC-37, kinase-specific Hsp90 cofactor of nematodes; same protein as m1, labeled at cysteines; The methods name ATTO 488 C5-maleimide, the results call the label AlexaFluor 488; also called fluorescently labeled CDC-37; AlexaFluor 488-labeled CDC-37
B3: CDC-37 (natural protein, nematode, UniProt O02108 1-370, looked up)
chain: B2 chain
notes: CDC-37, kinase-specific Hsp90 cofactor of nematodes; cDNA in pET28b after the N-terminal His6 tag; called full-length in the results; Cleavage of the His6 tag is not mentioned; also called full-length CDC-37; FL; source: E. coli BL21-CodonPlus(DE3)RIL, purified (HisTrap FF, ResourceS ion exchange, Superdex 75 SEC)

Assays:
[1] = biological target: B2; experiment: AUC; fluorescence AUC titration, 100 nM *CDC-37 with 0-10 µM DNJ-13; sedimentation coefficients against DNJ-13 concentration fitted with a Michaelis-Menten function; approximate KD; details: both partners purified
Sequence of DNJ-13 (Q20774 entry or part of it): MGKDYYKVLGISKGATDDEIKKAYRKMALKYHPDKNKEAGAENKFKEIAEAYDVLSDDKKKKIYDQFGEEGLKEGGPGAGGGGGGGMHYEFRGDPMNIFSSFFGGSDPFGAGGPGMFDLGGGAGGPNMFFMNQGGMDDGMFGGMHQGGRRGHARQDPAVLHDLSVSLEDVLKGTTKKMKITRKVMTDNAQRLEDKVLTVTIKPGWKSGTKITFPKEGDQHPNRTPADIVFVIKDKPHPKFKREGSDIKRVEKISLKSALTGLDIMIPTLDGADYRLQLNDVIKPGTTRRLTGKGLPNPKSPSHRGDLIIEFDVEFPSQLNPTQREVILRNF

[2] = biological target: the molecule itself; experiment: cross-linking; isotope labeled BS3-H12/D12 and DSSG-H6/D6; 16 µM DNJ-13 and 16 µM CDC-37; bands cut from SDS-PAGE, tryptic digest, nanoLC-ESI-MS/MS; crosslinks identified with xMASS and pLink2.0
[3] = biological target: T1, HSP-90 (nematode, UniProt Q18688 1-702); experiment: AUC; sedimentation velocity with fluorescence detection; 300 nM *CDC-37 with or without 2 µM binding partners; 42,000 rpm, 20 °C; 40 mM HEPES/KOH pH 7.5, 20 mM KCl, 1 mM DTT, 5 mM MgCl2; with and without ATPγS for HSP-90; details: both partners purified
T1 construct: HSP-90 of nematodes, the chaperone for which CDC-37 acts as co-chaperone; the construct is not described

[4] = biological target: B1; experiment: AUC; sedimentation velocity with UV/Vis absorbance, non-labeled proteins, 0.5 mg/ml protein; 10 µM DNJ-13 with substoichiometric, equal or excess CDC-37; 2DSA analysis in UltraScan III; details: both partners purified

B1
Kd [1]: ~3000 nM | stoichiometry N [2]: 2

B2
binding result [3]: binds

B3
stoichiometry N [4]: 1 CDC-37 per DNJ-13 dimer

Reference: article PMC8560915, “Nematode CDC-37 and DNJ-13 form complexes and can interact with HSP-90” (Scientific Reports, 2021)
